In patent US20180009908:
Positions count from the first letter of the chain named.

Columns and labels:
[1] = target: matuzumab HC_7.8_B + matuzumab LC (IgG1); assay: LCMS, IgG1 BsAb co-expression; HCA/HCB heterodimer carrying two LC2
[2] = target: BHA10 HC_7.8_B + BHA10 LC (IgG1); assay: as above
[3] = target: matuzumab HC_7.8_B + matuzumab LC (IgG1); assay: LCMS, IgG1 BsAb co-expression; HCA/HCB heterodimer carrying two LC1
[4] = target: BHA10 HC_7.8_B + BHA10 LC (IgG1); assay: as above
[5] = target: matuzumab HC_7.8_B + matuzumab LC (IgG1); assay: LCMS, IgG1 BsAb co-expression in HEK293F
[6] = target: BHA10 HC_7.8_B + BHA10 LC (IgG1); assay: LCMS, IgG1 BsAb co-expression in HEK293F
[7] = LCMS, IgG1 BsAb co-expression; HCA homodimer species
[8] = target: matuzumab HC_20.8.37_B + matuzumab LC (IgG1); assay: LCMS, IgG1 BsAb co-expression; HCA/HCB heterodimer carrying two LC2
[9] = target: matuzumab HC_20.8_B + matuzumab LC (IgG1); assay: as above
[10] = target: matuzumab HC_20.8.34_B + matuzumab LC (IgG1); assay: as above
[11] = target: BHA10 HC_20.8.37_B + BHA10 LC (IgG1); assay: as above
[12] = target: BHA10 HC_20.8.34_B + BHA10 LC (IgG1); assay: as above
[13] = target: BHA10 HC_20.8_B + BHA10 LC (IgG1); assay: as above
[14] = target: matuzumab HC_20.8.37_B + matuzumab LC (IgG1); assay: LCMS, IgG1 BsAb co-expression; HCA/HCB heterodimer carrying two LC1
[15] = target: matuzumab HC_20.8_B + matuzumab LC (IgG1); assay: as above
[16] = target: matuzumab HC_20.8.34_B + matuzumab LC (IgG1); assay: as above
[17] = target: BHA10 HC_20.8.37_B + BHA10 LC (IgG1); assay: as above
[18] = target: BHA10 HC_20.8.34_B + BHA10 LC (IgG1); assay: as above
[19] = target: BHA10 HC_20.8_B + BHA10 LC (IgG1); assay: as above
[20] = target: matuzumab HC_20.8.37_B + matuzumab LC (IgG1); assay: LCMS, IgG1 BsAb co-expression in HEK293F
[21] = target: matuzumab HC_20.8_B + matuzumab LC (IgG1); assay: LCMS, IgG1 BsAb co-expression in HEK293F
[22] = target: matuzumab HC_20.8.34_B + matuzumab LC (IgG1); assay: LCMS, IgG1 BsAb co-expression in HEK293F
[23] = target: BHA10 HC_20.8.37_B + BHA10 LC (IgG1); assay: LCMS, IgG1 BsAb co-expression in HEK293F
[24] = target: BHA10 HC_20.8.34_B + BHA10 LC (IgG1); assay: LCMS, IgG1 BsAb co-expression in HEK293F
[25] = target: BHA10 HC_20.8_B + BHA10 LC (IgG1); assay: LCMS, IgG1 BsAb co-expression in HEK293F
[26] = target: matuzumab HC_7.8.60_B + matuzumab LC (IgG1); assay: LCMS, IgG1 BsAb co-expression; HCA/HCB heterodimer carrying two LC2
[27] = target: BHA10 HC_7.8.60_B + BHA10 LC (IgG1); assay: as above
[28] = target: matuzumab HC_7.8.60_B + matuzumab LC (IgG1); assay: LCMS, IgG1 BsAb co-expression; HCA/HCB heterodimer carrying two LC1
[29] = target: BHA10 HC_7.8.60_B + BHA10 LC (IgG1); assay: as above
[30] = target: matuzumab HC_7.8.60_B + matuzumab LC (IgG1); assay: LCMS, IgG1 BsAb co-expression in HEK293F
[31] = target: BHA10 HC_7.8.60_B + BHA10 LC (IgG1); assay: LCMS, IgG1 BsAb co-expression in HEK293F
[32] = target: matuzumab HC_7.8_A + matuzumab LC (IgG1); assay: LCMS, IgG1 BsAb co-expression; HCA/HCB heterodimer carrying two LC2
[33] = target: matuzumab HC_7.8_A + matuzumab LC (IgG1); assay: LCMS, IgG1 BsAb co-expression; HCA/HCB heterodimer carrying two LC1
[34] = LCMS, IgG1 BsAb co-expression; HCA (MetMAb) homodimer species
[35] = target: matuzumab HC_7.8_A + matuzumab LC (IgG1); assay: LCMS, IgG1 BsAb co-expression in HEK293F
[36] = LCMS, IgG1 BsAb co-expression; HCB (matuzumab) homodimer species
[37] = pertuzumab × matuzumab bispecific

B1: pertuzumab HC_7.8_A + pertuzumab LC (IgG1) (protein)
chain 1: EVQLVESGGGLVQPGGSLRLSCAASGFTFTDYTMDWVRKAPGKGLEWVADVNPNSGGSIYNQEFKGRFTLSVDRSKNTLYLQMNSLRAEDTAVYYCARNLGPSFYFDYWGQGTLVTVSSASTKGPSVFPLAPSSKSTSGGTAALGCLVKDYFPEPVTVSWNSGALTSGVATGPAVLQSSGLYSLSSVVTVPSSSLGTQTYICNVNHKPSNTKVDKKVEPKSCDKTHTCPPCPAPELLGGPSVFLFPPKPKDTLMISRTPEVTCVVVDVSHEDPEVKFNWYVDGVEVHNAKTKPREEQYQSTYRVVSVLTVLHQDWLNGKEYKCKVSNKALPAPIEKTISKAKGQPREPQVYTLPPSREEMTKNQVSLTCLVKGFYPSDIAVEWESNGQPENNYKTTPPVLMSDGSFFLASKLTVDKSRWQQGNVFSCSVMHEALHNHYTQKSLSLSPGK
chain 2: RIQMTQSPSSLSASVGDRVTITCKASQDVSIGVAWYQDKPGKAPKLLIYSASYRYTGVPSRFSGSGSGTDFTLTISSLQPEDFATYYCQQYYIYPYTFGQGTKVEIKGQPKAAPSVTLFPPSSEELQANKATLVCYISDFYPGAVTVAWKADSSPVKAGVETTTPSKQSNNKYAAWSYLSLTPEQWKSHRSYSCQVTHEGSTVEKTVAPTEC
Protein B1 has a % AB (2x LC2) (incorrect assembly) [1] of 1.2%, a % AB (2x LC2) (incorrect assembly) [2] of 0% and a % AB (2x LC1) (incorrect assembly) [3] of 0%. The % AB (2x LC1) (incorrect assembly) [4] was 15.6%, the % AB (LC1/LC2) (correct IgG BsAb assembly) [5] was 95.4% and the % AB (LC1/LC2) (correct IgG BsAb assembly) [6] was 69.3%. It also gave a % AA Homodimer (incorrect assembly) ([7]; pertuzumab × BHA10 bispecific) of 0% and a % AA Homodimer (incorrect assembly) [7, 37] of 0.5%.

B2: pertuzumab HC_20.8.26_A + pertuzumab LC (IgG1) (protein)
chain 1: B1 chain 1 with Y351S, T368M, K372Y, M401D, A409Y, K411V
chain 2: B1 chain 2
Protein B2 has a % AB (2x LC2) (incorrect assembly) [8] of 0%, a % AB (2x LC2) (incorrect assembly) [9] of 0% and a % AB (2x LC2) (incorrect assembly) [10] of 0%. It also gave a % AB (2x LC2) (incorrect assembly) [11] of 0%, a % AB (2x LC2) (incorrect assembly) [12] of 0% and a % AB (2x LC2) (incorrect assembly) [13] of 0%. The % AB (2x LC1) (incorrect assembly) [14] was 0%, the % AB (2x LC1) (incorrect assembly) [15] was 0% and the % AB (2x LC1) (incorrect assembly) [16] was 0%. It also gave a % AB (2x LC1) (incorrect assembly) [17] of 7.5%, a % AB (2x LC1) (incorrect assembly) [18] of 9.7% and a % AB (2x LC1) (incorrect assembly) [19] of 0%. It also gave a % AB (LC1/LC2) (correct IgG BsAb assembly) [20] of 97.6%, a % AB (LC1/LC2) (correct IgG BsAb assembly) [21] of 95.2% and a % AB (LC1/LC2) (correct IgG BsAb assembly) [22] of 96.9%. For the same protein, the % AB (LC1/LC2) (correct IgG BsAb assembly) [23] was 89.6%, the % AB (LC1/LC2) (correct IgG BsAb assembly) [24] was 90.3% and the % AB (LC1/LC2) (correct IgG BsAb assembly) [25] was 96.9%.

B3: pertuzumab HC_7.8.60_A + pertuzumab LC (IgG1) (protein)
chain 1: B1 chain 1 with K362D
chain 2: B1 chain 2
With B3 the % AB (2x LC2) (incorrect assembly) [26] was 0%, the % AB (2x LC2) (incorrect assembly) [27] was 2.5% and the % AB (2x LC1) (incorrect assembly) [28] was 0%. For the same protein, the % AB (2x LC1) (incorrect assembly) [29] was 0%, the % AB (LC1/LC2) (correct IgG BsAb assembly) [30] was 98.1% and the % AB (LC1/LC2) (correct IgG BsAb assembly) [31] was 95.2%. The % AA Homodimer (incorrect assembly) ([7]; pertuzumab × BHA10 bispecific) was 0.7% and the % AA Homodimer (incorrect assembly) [7, 37] was 0.6%.

B4: MetMAb HC_7.8_B + MetMAb LC (IgG1) (protein)
chain 1: EVQLVESGGGLVQPGGSLRLSCAASGYTFTSYWLHWVRKAPGKGLEWVGMIDPSNSDTRFNPEFKDRFTISADTSKNTAYLQMNSLRAEDTAVYYCATYRSYVTPLDYWGQGTLVTVSSASTKGPSVFPLAPSSKSTSGGTAALGCLVKDYFPEPVTVSWNSGALTSGVATGPAVLQSSGLYSLSSVVTVPSSSLGTQTYICNVNHKPSNTKVDKKVEPKSCDKTHTCPPCPAPELLGGPSVFLFPPKPKDTLMISRTPEVTCVVVDVSHEDPEVKFNWYVDGVEVHNAKTKPREEQYQSTYRVVSVLTVLHQDWLNGKEYKCKVSNKALPAPIEKTISKAKGQPREPQVYTLPPSREEMTKNQVSLVCLVKGFYPSDIAVEWESNGQPENNYKTTPPVLDSDGSFFLYSVLTVDKSRWQQGNVFSCSVMHEALHNHYTQKSLSLSPGK
chain 2: RIQMTQSPSSLSASVGDRVTITCKSSQSLLYTSSQKNYLAWYQDKPGKAPKLLIYWASTRESGVPSRFSGSGSGTDFTLTISSLQPEDFATYYCQQYYAYPWTFGQGTKVEIKGQPKAAPSVTLFPPSSEELQANKATLVCYISDFYPGAVTVAWKADSSPVKAGVETTTPSKQSNNKYAAWSYLSLTPEQWKSHRSYSCQVTHEGSTVEKTVAPTEC
Work on B4 yielded a % AB (2x LC2) (incorrect assembly) [32] of 0%, a % AB (2x LC1) (incorrect assembly) [33] of 0% and a % AA Homodimer (incorrect assembly) [34] of 0%. It also gave a % AB (LC1/LC2) (correct IgG BsAb assembly) [35] of 100%.

B5: matuzumab HC_7.8.60_A + matuzumab LC (IgG1) (protein)
chain 1: QVQLVQSGAEVKKPGASVKVSCKASGYTFTSHWMHWVRYAPGQGLEWIGEFNPSNGRTNYNEKFKSKATMTVDTSTNTAYMELSSLRSEDTAVYYCASRDYDYDGRYFDYWGRGTLVTVSSASTKGPSVFPLAPCSKSTSGGTAALGCLVKDYFPEPVTVSWNSGALTSGVHTFPAVLQSSGLYSLSSVVTVPSSSLGTQTYICNVNHKPSNTKVDKKVEPDSGDKTHTCPPCPAPELLGGPSVFLFPPKPKDTLMISRTPEVTCVVVDVSHEDPEVKFNWYVDGVEVHNAKTKPREEQYNSTYRVVSVLTVLHQDWLNGKEYKCKVSNKALPAPIEKTISKAKGQPREPQVYTLPPSREEMTDNQVSLTCLVKGFYPSDIAVEWESNGQPENNYKTTPPVLMSDGSFFLASKLTVDKSRWQQGNVFSCSVMHEALHNHYTQKSLSLSPGK
chain 2: DIQMTQSPSSLSASVGDRVTITCSASSSVTYMYWYQRKPGDAPKLLIYDTSNLASGVPSRFSGSGSGTDYTFTISSLQPEDIATYYCQQWSSHIFTFGQGTKVEIKRTVAAPSVFIFPPSKEQLKSGTASVVCLLNNFYPREAKVQWKVDNALQSGNSQESVTEQDSKDSTYSLSSTLTLSKADYEKHKVYACEVTHQGLSSPVTKSFNRGEC
For B5, the % BB Homodimer (incorrect assembly) [36] was 0%.
